T1: Halo-tagged iASPP CTD (625–828) (UniProt Q8WUF5 625-828)
T1 construct: iASPP C-terminal domain (CTD) with the SH3 domain, residues 625-828; also called iASPP CTD fused to Halo-Tag; not shown: HaloTag, N-terminal, kept
T1 sequence (looked up): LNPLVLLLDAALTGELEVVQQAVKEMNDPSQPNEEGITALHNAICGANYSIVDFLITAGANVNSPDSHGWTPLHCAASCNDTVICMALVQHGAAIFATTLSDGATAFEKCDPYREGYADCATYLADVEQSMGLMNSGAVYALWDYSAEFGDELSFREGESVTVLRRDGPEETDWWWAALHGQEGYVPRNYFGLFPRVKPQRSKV

T2: ASPP1 CTD (887–1090) (Homo sapiens (Human), UniProt Q96KQ4)
T2 chain: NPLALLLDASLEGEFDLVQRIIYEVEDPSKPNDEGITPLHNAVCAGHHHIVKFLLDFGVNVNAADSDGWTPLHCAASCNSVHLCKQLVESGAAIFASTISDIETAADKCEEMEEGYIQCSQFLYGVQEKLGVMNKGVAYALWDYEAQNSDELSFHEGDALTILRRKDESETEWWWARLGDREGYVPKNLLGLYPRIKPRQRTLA

T3: ASPP1 CTD (887–1090) (Homo sapiens (Human), UniProt Q96KQ4)
T3 chain: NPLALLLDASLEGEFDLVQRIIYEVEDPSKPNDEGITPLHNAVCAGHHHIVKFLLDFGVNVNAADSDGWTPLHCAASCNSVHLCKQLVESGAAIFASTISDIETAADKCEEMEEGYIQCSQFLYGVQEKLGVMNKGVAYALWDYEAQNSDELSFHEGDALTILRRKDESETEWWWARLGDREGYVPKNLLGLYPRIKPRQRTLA

T4: iASPP CTD (625–828) (UniProt Q8WUF5 625-828)
T4 chain: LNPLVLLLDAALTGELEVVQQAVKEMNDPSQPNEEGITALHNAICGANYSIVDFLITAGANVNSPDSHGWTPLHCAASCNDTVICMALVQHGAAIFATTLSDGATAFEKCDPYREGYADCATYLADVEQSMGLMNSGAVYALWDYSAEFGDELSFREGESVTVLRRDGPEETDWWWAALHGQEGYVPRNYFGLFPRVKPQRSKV


Experiments:
[1] = target: T1, Halo-tagged iASPP CTD (625–828); assay: pull-down; displacement pull-down: 25 μM JunD or PP1 peptide added to Halo-iASPP CTD on magnetic Halo beads, read by loss of in vitro translated Myc-tagged protein; details: both partners purified
ASPP1 CTD (887–1090) [2] = target: T2, ASPP1 CTD (887–1090); assay: ITC
ASPP1 CTD (887–1090) [3] = target: T3, ASPP1 CTD (887–1090); assay: ITC
iASPP CTD (625–828) = target: T4, iASPP CTD (625–828); assay: ITC

Row | binding result [1] | binding result (ASPP1 CTD (887–1090) [2]) | binding result (ASPP1 CTD (887–1090) [3]) | Kd (iASPP CTD (625–828)) [µM] | Binder
1 | binds |  |  |  | WNPGGRPITPPRNSA (leading tryptophan; PxxP-containing peptide derived from the phosphatase PP1 (PP1alpha), C-terminal tail; also called PP1 peptide; source: synthetic peptide (TUCF, custom made)) [PP1alpha peptide (WNPGGRPITPPRNSA)]
2 |  | no binding | no binding | 4.58 | WLKPAAAPPPTPLRADGAPSA [JunD peptide (WLKPAAAPPPTPLRADGAPSA)]

From PMC9597577, “Mutant Ras and inflammation-driven skin tumorigenesis is suppressed via a JNK-iASPP-AP1 axis” (Cell Reports, 2022)
